Measurements: patent publication US9993529B2, “Stable formulations of a hyaluronan-degrading enzyme” (Halozyme, Inc., priority 2011, dated 2018)

Experiment: RP-HPLC insulin apparent solubility / percent recovery (content)
Details: 7 days at 2-8° C.
Protocol: Apparent solubility was measured as the percent insulin recovery as compared to the initial formulations/conditions.
Samples were prepared by withdrawing 100 μL from each vial at every time point and centrifuging prior to loading. Samples were stored in an autosampler at 4° C. prior to use, and were considered stable for 3 days after preparation. All samples were tested in duplicate.
For insulin, 20 μL was injected for each HPLC run.
To determine the apparent solubility, the peak area of insulin/insulin analog main peak and desamido peak were integrated and combined together to calculate the percentage relative to the standards. […] The data were processed using Design-Expert® 7.0 (StatEase) and the “historical data” feature. Insulin percent purity was expressed as the percent of main insulin versus all insulin species.

Aspart: AspB28 human insulin analog
Solubility of Insulin Aspart (0.2% methylparaben + […] m-cresol, pH 6.6, NaCl 50 mM): 57.7% | Solubility of Insulin Aspart (0.2% methylparaben + […] m-cresol, pH 6.6, NaCl 80 mM): 32.1% | Solubility of Insulin Aspart (0.2% methylparaben + […] m-cresol, pH 6.6, NaCl 110 mM): 21.1% | Solubility of Insulin Aspart (0.2% methylparaben + […] m-cresol, pH 6.6, NaCl 140 mM): 14.7% | Solubility of Insulin Aspart (0.2% methylparaben + […] m-cresol, pH 6.8, NaCl 50 mM): 97.2% | Solubility of Insulin Aspart (0.2% methylparaben + […] m-cresol, pH 6.8, NaCl 80 mM): 84.1% | Solubility of Insulin Aspart (0.2% methylparaben + […] m-cresol, pH 6.8, NaCl 110 mM): 54.2% | Solubility of Insulin Aspart (0.2% methylparaben + […] m-cresol, pH 6.8, NaCl 140 mM): 32.2% | Solubility of Insulin Aspart (0.2% methylparaben + […] m-cresol, pH 7.0, NaCl 50 mM): 98.7% | Solubility of Insulin Aspart (0.2% methylparaben + […] m-cresol, pH 7.0, NaCl 80 mM): 100.2% | Solubility of Insulin Aspart (0.2% methylparaben + […] m-cresol, pH 7.0, NaCl 110 mM): 96.3% | Solubility of Insulin Aspart (0.2% methylparaben + […] m-cresol, pH 7.0, NaCl 140 mM): 67.9% | Solubility of Insulin Aspart (0.2% methylparaben + […] m-cresol, pH 7.2, NaCl 50 mM): 99.0% | Solubility of Insulin Aspart (0.2% methylparaben + […] m-cresol, pH 7.2, NaCl 80 mM): 100.2% | Solubility of Insulin Aspart (0.2% methylparaben + […] m-cresol, pH 7.2, NaCl 110 mM): 99.5% | Solubility of Insulin Aspart (0.2% methylparaben + […] m-cresol, pH 7.2, NaCl 140 mM): 101.6% | Solubility of Insulin Aspart (0.2% methylparaben + […] m-cresol, pH 7.4, NaCl 50 mM): 99.1% | Solubility of Insulin Aspart (0.2% methylparaben + […] m-cresol, pH 7.4, NaCl 80 mM): 100.5% | Solubility of Insulin Aspart (0.2% methylparaben + […] m-cresol, pH 7.4, NaCl 110 mM): 99.6% | Solubility of Insulin Aspart (0.2% methylparaben + […] m-cresol, pH 7.4, NaCl 140 mM): 99.6% | Solubility of Insulin Aspart (0.2% methylparaben + […] m-cresol, pH 7.6, NaCl 50 mM): 99.3% | Solubility of Insulin Aspart (0.2% methylparaben + […] m-cresol, pH 7.6, NaCl 80 mM): 100.6% | Solubility of Insulin Aspart (0.2% methylparaben + […] m-cresol, pH 7.6, NaCl 110 mM): 99.8% | Solubility of Insulin Aspart (0.2% methylparaben + […] m-cresol, pH 7.6, NaCl 140 mM): 99.8% | Solubility of Insulin Aspart (0.2% phenol + […] m-cresol, pH 6.6, NaCl 50 mM): 91.8% | Solubility of Insulin Aspart (0.2% phenol + […] m-cresol, pH 6.6, NaCl 80 mM): 59.2% | Solubility of Insulin Aspart (0.2% phenol + […] m-cresol, pH 6.6, NaCl 110 mM): 58.0% | Solubility of Insulin Aspart (0.2% phenol + […] m-cresol, pH 6.6, NaCl 140 mM): 39.3% | Solubility of Insulin Aspart (0.2% phenol + […] m-cresol, pH 6.8, NaCl 50 mM): 98.8% | Solubility of Insulin Aspart (0.2% phenol + […] m-cresol, pH 6.8, NaCl 80 mM): 91.8% | Solubility of Insulin Aspart (0.2% phenol + […] m-cresol, pH 6.8, NaCl 110 mM): 72.8% | Solubility of Insulin Aspart (0.2% phenol + […] m-cresol, pH 6.8, NaCl 140 mM): 50.9% | Solubility of Insulin Aspart (0.2% phenol + […] m-cresol, pH 7.0, NaCl 50 mM): 99.1% | Solubility of Insulin Aspart (0.2% phenol + […] m-cresol, pH 7.0, NaCl 80 mM): 100.6% | Solubility of Insulin Aspart (0.2% phenol + […] m-cresol, pH 7.0, NaCl 110 mM): 99.9% | Solubility of Insulin Aspart (0.2% phenol + […] m-cresol, pH 7.0, NaCl 140 mM): 88.9% | Solubility of Insulin Aspart (0.2% phenol + […] m-cresol, pH 7.2, NaCl 50 mM): 99.1% | Solubility of Insulin Aspart (0.2% phenol + […] m-cresol, pH 7.2, NaCl 80 mM): 100.5% | Solubility of Insulin Aspart (0.2% phenol + […] m-cresol, pH 7.2, NaCl 110 mM): 100.0% | Solubility of Insulin Aspart (0.2% phenol + […] m-cresol, pH 7.2, NaCl 140 mM): 99.7% | Solubility of Insulin Aspart (0.2% phenol + […] m-cresol, pH 7.4, NaCl 50 mM): 99.2% | Solubility of Insulin Aspart (0.2% phenol + […] m-cresol, pH 7.4, NaCl 80 mM): 100.6% | Solubility of Insulin Aspart (0.2% phenol + […] m-cresol, pH 7.4, NaCl 110 mM): 100.0% | Solubility of Insulin Aspart (0.2% phenol + […] m-cresol, pH 7.4, NaCl 140 mM): 99.7% | Solubility of Insulin Aspart (0.2% phenol + […] m-cresol, pH 7.6, NaCl 50 mM): 99.2% | Solubility of Insulin Aspart (0.2% phenol + […] m-cresol, pH 7.6, NaCl 80 mM): 100.8% | Solubility of Insulin Aspart (0.2% phenol + […] m-cresol, pH 7.6, NaCl 110 mM): 100.2% | Solubility of Insulin Aspart (0.2% phenol + […] m-cresol, pH 7.6, NaCl 140 mM): 99.8% | Solubility of Insulin Aspart ([…] phenol + […] m-cresol, pH 6.6, NaCl 50 mM): 97.9% | Solubility of Insulin Aspart ([…] phenol + […] m-cresol, pH 6.6, NaCl 80 mM): 86.3% | Solubility of Insulin Aspart ([…] phenol + […] m-cresol, pH 6.6, NaCl 110 mM): 54.4% | Solubility of Insulin Aspart ([…] phenol + […] m-cresol, pH 6.6, NaCl 140 mM): 38.3% | Solubility of Insulin Aspart ([…] phenol + […] m-cresol, pH 6.8, NaCl 50 mM): 99.8% | Solubility of Insulin Aspart ([…] phenol + […] m-cresol, pH 6.8, NaCl 80 mM): 97.9% | Solubility of Insulin Aspart ([…] phenol + […] m-cresol, pH 6.8, NaCl 110 mM): 97.5% | Solubility of Insulin Aspart ([…] phenol + […] m-cresol, pH 6.8, NaCl 140 mM): 60.5% | Solubility of Insulin Aspart ([…] phenol + […] m-cresol, pH 7.0, NaCl 50 mM): 99.7% | Solubility of Insulin Aspart ([…] phenol + […] m-cresol, pH 7.0, NaCl 80 mM): 99.3% | Solubility of Insulin Aspart ([…] phenol + […] m-cresol, pH 7.0, NaCl 110 mM): 99.3% | Solubility of Insulin Aspart ([…] phenol + […] m-cresol, pH 7.0, NaCl 140 mM): 100.2% | Solubility of Insulin Aspart ([…] phenol + […] m-cresol, pH 7.2, NaCl 50 mM): 99.1% | Solubility of Insulin Aspart ([…] phenol + […] m-cresol, pH 7.2, NaCl 80 mM): 99.2% | Solubility of Insulin Aspart ([…] phenol + […] m-cresol, pH 7.2, NaCl 110 mM): 99.2% | Solubility of Insulin Aspart ([…] phenol + […] m-cresol, pH 7.2, NaCl 140 mM): 101.1% | Solubility of Insulin Aspart ([…] phenol + […] m-cresol, pH 7.4, NaCl 50 mM): 100.0% | Solubility of Insulin Aspart ([…] phenol + […] m-cresol, pH 7.4, NaCl 80 mM): 99.6% | Solubility of Insulin Aspart ([…] phenol + […] m-cresol, pH 7.4, NaCl 110 mM): 99.5% | Solubility of Insulin Aspart ([…] phenol + […] m-cresol, pH 7.4, NaCl 140 mM): 101.1% | Solubility of Insulin Aspart ([…] phenol + […] m-cresol, pH 7.6, NaCl 50 mM): 100.1% | Solubility of Insulin Aspart ([…] phenol + […] m-cresol, pH 7.6, NaCl 80 mM): 99.7% | Solubility of Insulin Aspart ([…] phenol + […] m-cresol, pH 7.6, NaCl 110 mM): 99.4% | Solubility of Insulin Aspart ([…] phenol + […] m-cresol, pH 7.6, NaCl 140 mM): 101.1%
